# Assay results taken from patent US20260242735A1 (UNIVERSIT T BASEL, published 2026).
# Tests used:
# Experiment in all cases: alanine scan, flow cytometry, HEK293-T;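 also: antibody binding to each alanine-substituted CD33 mutant expressed transiently in HEK293-T, read as fluorescence minus background, mean of duplicates, relative to wild-type CD33 set as 100%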
# human CD33 Q251A = human CD33 Q251A (human, UniProt P20138 18-364)
# human CD33 R254A = human CD33 R254A (human, UniProt P20138 18-364)
# human CD33 V257A = human CD33 V257A (human, UniProt P20138 18-364)
# human CD33 I262A = human CD33 I262A (human, UniProt P20138 18-364)
# human CD33 G263A = human CD33 G263A (human, UniProt P20138 18-364)
# human CD33 A269S = human CD33 A269S (human, UniProt P20138 18-364)
# human CD33 C274A = human CD33 C274A (human, UniProt P20138 18-364)
# human CD33 L275A = human CD33 L275A (human, UniProt P20138 18-364)
# human CD33 L277A = human CD33 L277A (human, UniProt P20138 18-364)
# human CD33 I278A = human CD33 I278A (human, UniProt P20138 18-364)
# human CD33 A289S = human CD33 A289S (human, UniProt P20138 18-364)
# human CD33 A290S = human CD33 A290S (human, UniProt P20138 18-364)
# human CD33 T292A = human CD33 T292A (human, UniProt P20138 18-364)
# human CD33 V294A = human CD33 V294A (human, UniProt P20138 18-364)
# human CD33 R296A = human CD33 R296A (human, UniProt P20138 18-364)
# human CD33 N297A = human CD33 N297A (human, UniProt P20138 18-364)
# human CD33 P244A = human CD33 P244A (human, UniProt P20138 18-364)
# human CD33 T299A = human CD33 T299A (human, UniProt P20138 18-364)
# human CD33 G304A = human CD33 G304A (human, UniProt P20138 18-364)
# human CD33 S305A = human CD33 S305A (human, UniProt P20138 18-364)
# Chain of human CD33 S305A (P20138 18-364 S305A limits assumed): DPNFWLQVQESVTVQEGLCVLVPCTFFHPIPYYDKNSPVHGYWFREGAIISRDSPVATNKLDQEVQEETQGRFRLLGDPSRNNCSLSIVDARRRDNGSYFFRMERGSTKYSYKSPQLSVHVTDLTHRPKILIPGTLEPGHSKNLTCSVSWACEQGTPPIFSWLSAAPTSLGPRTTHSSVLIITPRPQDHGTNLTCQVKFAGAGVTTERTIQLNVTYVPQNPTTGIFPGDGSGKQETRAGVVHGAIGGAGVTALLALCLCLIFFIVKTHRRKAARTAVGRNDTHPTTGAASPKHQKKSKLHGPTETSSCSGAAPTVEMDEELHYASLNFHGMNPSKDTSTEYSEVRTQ
# Chain of human CD33 Q251A (P20138 18-364 Q251A limits assumed): as the sequence (P20138 18-364 S305A limits assumed) above, with Q234A, A288S counted along it
# Chain of human CD33 V257A (P20138 18-364 V257A limits assumed): as the sequence (P20138 18-364 S305A limits assumed) above, with V240A, A288S counted along it
# Chain of human CD33 L275A (P20138 18-364 L275A limits assumed): as the sequence (P20138 18-364 S305A limits assumed) above, with L258A, A288S counted along it
# Chain of human CD33 C274A (P20138 18-364 C274A limits assumed): as the sequence (P20138 18-364 S305A limits assumed) above, with C257A, A288S counted along it
# Chain of human CD33 N297A (P20138 18-364 N297A limits assumed): as the sequence (P20138 18-364 S305A limits assumed) above, with N280A, A288S counted along it
# Chain of human CD33 L277A (P20138 18-364 L277A limits assumed): as the sequence (P20138 18-364 S305A limits assumed) above, with L260A, A288S counted along it
# Chain of human CD33 A290S (P20138 18-364 A290S limits assumed): as the sequence (P20138 18-364 S305A limits assumed) above, with A273S, A288S counted along it
# Chain of human CD33 I278A (P20138 18-364 I278A limits assumed): as the sequence (P20138 18-364 S305A limits assumed) above, with I261A, A288S counted along it
# Chain of human CD33 A289S (P20138 18-364 A289S limits assumed): as the sequence (P20138 18-364 S305A limits assumed) above, with A272S, A288S counted along it
# Chain of human CD33 T292A (P20138 18-364 T292A limits assumed): as the sequence (P20138 18-364 S305A limits assumed) above, with T275A, A288S counted along it
# Chain of human CD33 T299A (P20138 18-364 T299A limits assumed): as the sequence (P20138 18-364 S305A limits assumed) above, with T282A, A288S counted along it
# Chain of human CD33 A269S (P20138 18-364 A269S limits assumed): as the sequence (P20138 18-364 S305A limits assumed) above, with A252S, A288S counted along it
# Chain of human CD33 P244A (P20138 18-364 P244A limits assumed): as the sequence (P20138 18-364 S305A limits assumed) above, with P227A, A288S counted along it
# Chain of human CD33 R296A (P20138 18-364 R296A limits assumed): as the sequence (P20138 18-364 S305A limits assumed) above, with R279A, A288S counted along it
# Chain of human CD33 V294A (P20138 18-364 V294A limits assumed): as the sequence (P20138 18-364 S305A limits assumed) above, with V277A, A288S counted along it
# Chain of human CD33 I262A (P20138 18-364 I262A limits assumed): as the sequence (P20138 18-364 S305A limits assumed) above, with I245A, A288S counted along it
# Chain of human CD33 G304A (P20138 18-364 G304A limits assumed): as the sequence (P20138 18-364 S305A limits assumed) above, with G287A, A288S counted along it
# Chain of human CD33 G263A (P20138 18-364 G263A limits assumed): as the sequence (P20138 18-364 S305A limits assumed) above, with G246A, A288S counted along it
# Chain of human CD33 R254A (P20138 18-364 R254A limits assumed): as the sequence (P20138 18-364 S305A limits assumed) above, with R237A, A288S counted along it
Mean % WT Binding (human CD33 Q251A),Mean % WT Binding (human CD33 R254A),Mean % WT Binding (human CD33 V257A),Mean % WT Binding (human CD33 I262A),Mean % WT Binding (human CD33 G263A),Mean % WT Binding (human CD33 A269S),Mean % WT Binding (human CD33 C274A),Mean % WT Binding (human CD33 L275A),Mean % WT Binding (human CD33 L277A),Mean % WT Binding (human CD33 I278A),Mean % WT Binding (human CD33 A289S),Mean % WT Binding (human CD33 A290S),Mean % WT Binding (human CD33 T292A),Mean % WT Binding (human CD33 V294A),Mean % WT Binding (human CD33 R296A),Mean % WT Binding (human CD33 N297A),Mean % WT Binding (human CD33 P244A),Mean % WT Binding (human CD33 T299A),Mean % WT Binding (human CD33 G304A),Mean % WT Binding (human CD33 S305A),Binder
97.5 % WT binding,101 % WT binding,110 % WT binding,111 % WT binding,99.9 % WT binding,83.6 % WT binding,103 % WT binding,99.3 % WT binding,92.2 % WT binding,116 % WT binding,95 % WT binding,107 % WT binding,100 % WT binding,97.8 % WT binding,106 % WT binding,88.9 % WT binding,100 % WT binding,92.9 % WT binding,95 % WT binding,104 % WT binding,"Refmab #4 (antibody, V domains shown, The alanine scan used IgG or Fab) VH: QVQLVQSGAEVKKPGESVKVSCKASGYTFTNYGMNWVKQAPGQGLEWMGWINTYTGEPTYADKFQGRVTMTTDTSTSTAYMEIRNLGGDDTAVYYCARWSWSDGYYVYFDYWGQGTSVTVSS VL: DIVMTQSPDSLTVSLGERTTINCKSSQSVLDSSTNKNSLAWYQQKPGQPPKLLLSWASTRESGIPDRFSGSGSGTDFTLTIDSPQPEDSATYYCQQSAHFPITFGQGTRLEIK"
93.3 % WT binding,88.4 % WT binding,89 % WT binding,130 % WT binding,116 % WT binding,97.4 % WT binding,111 % WT binding,123 % WT binding,81.9 % WT binding,100 % WT binding,82.8 % WT binding,97.2 % WT binding,99.6 % WT binding,95.8 % WT binding,92.9 % WT binding,133 % WT binding,138 % WT binding,85.6 % WT binding,121 % WT binding,103 % WT binding,"Refmab #3 (antibody, V domains shown, The alanine scan used IgG or Fab) VH: QVQLVQSGAEVKKPGSSVKVSCKASGYTFTDYNMHWVRQAPGQGLEWIGYIYPYNGGTGYNQKFKSKATITADESTNTAYMELSSLRSEDTAVYYCARGRPAMDYWGQGTLVTVSS VL: DIQMTQSPSSLSASVGDRVTITCRASESVDNYGISFMNWFQQKPGKAPKLLIYAASNQGSGVPSRFSGSGSGTDFTLTISSLQPDDFATYYCQQSKEVPWTFGQGTKVEIK"
